From patent US20170247437A1 (ONCOMED PHARMACEUTICALS, published 2017)

Tests used:
[1] = molecular target: FLAG-RSPO1furin-CD4TM-GFP (human) (UniProt Q2MKA7); test: FACS on HEK-293 cells transiently expressing FLAG-RSPO1furin-CD4TM-GFP; secondary APC-conjugated anti-IgG alone, no primary antibody
[2] = molecular target: T1, recombinant human RSPO1 (R&D Systems) (human, UniProt Q2MKA7 21-263); test: ELISA on plate-coated recombinant human RSPO1, anti-human IgG Fc-HRP detection, 4-parameter fit, 3 runs
T1 construct: Bought protein
Experimental: High binding 96 well plates (Nalge Nunc International) were coated with […] recombinant human RSPO1 (R&D Systems) in coating buffer (1× PBS, pH 7.4) overnight at 2-8° C. The plates were washed 3-6 times after each step with 300 μl/well of 1× PBS, 0.05% Tween-20, pH 7.4. After coating, the plates were incubated with 250 μl/well of blocking buffer (1× PBS, 0.1% gelatin, 0.1% TWEEN-20, pH 7.4) for 60 minutes ±10 minutes at room temperature (19-25° C.). Plates were washed and incubated with 100 μl/well of first generation humanized anti-RSPO1 antibody h89M5-H2L2 and second generation humanized antibody h89M5-H8L5 for 120 minutes ±10 minutes at room temperature. First generation humanized anti-RSPO1 antibody h89M5-H2L2 was use as the reference standard and the positive control. The antibodies were prepared at an initial concentration of 2.5 μg/ml and diluted 3-fold serially, ranging from 2.5 μg/ml to […]. Each sample was tested in duplicate and the experiment was run 3 times. […] The binding of the antibodies to RSPO1 was measured by absorbance at 450 nm and 650 nm using an ELISA plate reader (Molecular Devices). The results were analyzed using a 4-parameter curve fit, and relative binding potency was determined by comparing EC₅₀ values of the reference to that of the samples.

T1 sequence (Q2MKA7 21-263 limits assumed): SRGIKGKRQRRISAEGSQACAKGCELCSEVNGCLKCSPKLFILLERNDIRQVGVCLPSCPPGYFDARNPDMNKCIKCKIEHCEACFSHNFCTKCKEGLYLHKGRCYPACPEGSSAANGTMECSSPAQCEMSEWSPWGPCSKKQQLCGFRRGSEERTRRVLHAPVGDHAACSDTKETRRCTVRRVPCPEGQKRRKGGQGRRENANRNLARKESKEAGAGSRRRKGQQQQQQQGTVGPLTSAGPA
Sequence of FLAG-RSPO1furin-CD4TM-GFP (human) (Q2MKA7 34-135): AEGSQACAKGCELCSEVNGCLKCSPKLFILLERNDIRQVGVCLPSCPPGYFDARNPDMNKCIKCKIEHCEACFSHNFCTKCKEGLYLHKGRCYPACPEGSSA

Row | MFI [1] | mean relative binding potency (EC50 against reference h89M5-H2L2) [2] [%] | Molecule
1 | 3.2 | – | Secondary Ab Control (antibody)
2 | – | 120 | second generation humanized anti-RSPO1 antibody h89M5-H8L5 (antibody, human IgG1, kappa, V domains shown, Humanized version of mouse antibody 89M5, with the same CDRs as h89M5-H2L2; also called h89R5-H8L5) VH: EVQLVQSGAEVKKPGESLRISCKGSGYSFTGYTMHWVRQMPGKGLEWMGGINPNNGGTTYNQNFKGHVTISADKSISTAYLQWSSLKASDTAMYYCARKEFSDGYYFFAYWGQGTLVTVSS VL: DIVMTQSPDSLAVSLGERATINCKASQDVIFAVAWYQQKPGQPPKLLIYWASTRHTGVPDRFSGSGSGTDFTLTISSLQAEDVAVYYCQQHYSTPWTFGGGTKVEIKR
